Drawing on paper doi:10.1101/2025.01.01.631016, “A tool to dissect heterotypic determinants of homotypic protein phase behavior” (bioRxiv, 2025), this text covers Kd for 1 molecule.

This assay concerns the target T1, Avitag-His-TEV-mEos3.1 (Lobophyllia hemprichii EosFP, …, point mutant).
T1 construct: also called purified mEos3.1; pET-Biotin-His6-mEos3.1; source: E. coli BL21 (DE3), co-expressed with BirA, purified (Ni-NTA, anion exchange)
T1 chain: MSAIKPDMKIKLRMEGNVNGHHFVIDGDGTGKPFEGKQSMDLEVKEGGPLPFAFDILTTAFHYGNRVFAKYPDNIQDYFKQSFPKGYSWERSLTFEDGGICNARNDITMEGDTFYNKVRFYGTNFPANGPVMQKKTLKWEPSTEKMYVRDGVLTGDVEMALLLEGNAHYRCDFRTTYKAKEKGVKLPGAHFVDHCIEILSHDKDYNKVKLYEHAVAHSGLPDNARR
Nature of the assay: BLI. The following applies: both partners purified.

B1: tag free mEosNb (VHH)
VHH: QVQLQESGGGLVQAGGSLRLSCAASGNISQLVYMGWYRQAPGKERELVAGITHGGITYYADSVKGRFTISRDNAKNTVYLQMNSLKPEDTAVYYCAAFQWRSDDVGYLNLGPLEYWGQGTQVTVSS
notes: also called mEos3Nb; nanobody against mEos3; not shown: Avitag, C-terminal, cleaved; His, C-terminal, cleaved
The Kd is the constant that tells how readily two partners part at equilibrium. A high value points to lower affinity. As for B1, the dissociation constant Kd was found to be 76.8 nM.
